Drawing on patent US20130171063A1 (LUDWIG INSTITUTE FOR CANCER RESEARCH, published 2013), this text covers binding result and Kd for three molecules.

The target of assay [1] is T1, peptide 24 (N-terminal biotin).
T1 peptide: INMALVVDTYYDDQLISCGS
The assay can be described thus: ELISA on biotinylated 20-mer c-Met peptides on streptavidin plates, A405 nm.
Protocol: (§1) The library consisted of N-terminally biotinylated, 20-mer peptides, overlapping by 15 amino acids and pre-absorbed onto 96-well streptavidin coated plates. LMH antibodies 80 to 89 were added to these plates to determine their reactivity against each single peptide using standard ELISA. Epitopes for each antibody were determined by overlaying the sequences of the peptides which reacted with the antibody, leading to a determination of a core common amino acid sequence.
(§2) The peptide sequence bound by each antibody was aligned to determine the core epitope.

Assay [2] addresses T2, peptide 23 (N-terminal biotin).
T2 peptide: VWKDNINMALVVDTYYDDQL
The description is as above.
Protocol: as §1, §2

Assay [3] addresses T3, peptide 25 (N-terminal biotin).
T3 peptide: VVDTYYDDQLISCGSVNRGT
The assay is described as above.
Protocol: as §1, §2

Assay [4] deals with T4, purified truncated c-Met fragment designated 25-567H (human, UniProt P08581 25-567).
T4 construct: Produced in transfected CHO-Lec cells; also called c-Met antigen; c-Met Ag
T4 sequence (P08581 other isoform, or with tags, fused parts or gaps limits assumed): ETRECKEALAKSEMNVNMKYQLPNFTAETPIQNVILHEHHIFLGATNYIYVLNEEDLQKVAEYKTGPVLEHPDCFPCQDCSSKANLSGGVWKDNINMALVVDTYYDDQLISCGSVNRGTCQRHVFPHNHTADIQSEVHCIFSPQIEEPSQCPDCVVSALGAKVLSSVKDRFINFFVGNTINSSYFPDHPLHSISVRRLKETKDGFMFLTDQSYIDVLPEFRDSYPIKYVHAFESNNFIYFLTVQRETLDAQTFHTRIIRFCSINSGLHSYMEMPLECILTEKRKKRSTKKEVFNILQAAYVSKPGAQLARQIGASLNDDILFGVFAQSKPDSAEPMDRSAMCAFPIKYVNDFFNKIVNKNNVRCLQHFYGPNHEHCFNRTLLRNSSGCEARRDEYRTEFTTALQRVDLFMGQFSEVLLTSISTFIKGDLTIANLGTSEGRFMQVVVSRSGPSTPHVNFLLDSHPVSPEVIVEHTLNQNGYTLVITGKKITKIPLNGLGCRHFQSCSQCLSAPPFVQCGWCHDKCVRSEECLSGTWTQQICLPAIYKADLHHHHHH
The assay can be described thus: BIAcore, His6-c-Met 25-567 on Ni-NTA chip, antibody passed over; apparent KD.
Description: The LMH antibodies were passed over the chip at varying concentrations in order to determine apparent affinity (KD). Chips were regenerated with EDTA.

The target of assay [5] is T5, peptide 47 (N-terminal biotin).
T5 peptide: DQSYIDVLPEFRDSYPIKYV
Kind of assay: ELISA on biotinylated 20-mer c-Met peptides on streptavidin plates, A405 nm, mean ± SEM.
Protocol: as §1, §2

Assay [6] addresses T6, peptide 46 (N-terminal biotin).
T6 peptide: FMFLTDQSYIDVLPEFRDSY
Described as above.
Protocol: as §1, §2

Assay [7] deals with T7, peptide 48 (N-terminal biotin).
T7 peptide: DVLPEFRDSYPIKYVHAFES
The assay is described as above.
Protocol: as §1, §2

Assay [8] concerns the target T4, purified truncated c-Met fragment …. The assay can be described thus: ELISA, plate coated with recombinant truncated c-Met antigen.
Protocol: Following incubation, the supernatant was removed and the wells washed twice with wash buffer 0.05% Tween20-PBS, this was followed by a 1 hour block at room temperature with 3% FCS/PBS at 230 μl/well. The wells were then washed one with wash buffer (0.05% Tween 2-PBS) and rinsed with PBS. 100 μl of sample (hybridoma supernatant) was then added to each well and the plate incubated at room temperature for 1 hour. This was followed by a 4× wash with wash buffer (0.05% Tween 2-PBS) and rinse with PBS. 100 μl of goat anti-mouse Ig gamma-AP (Sigma A3438), diluted in wash buffer 1:2000 was then added and allowed to incubate at room temperature for 1 hour. Following the incubation, the wells were washed 4× with wash buffer and rinsed with PBS. The reaction was developed with 100 μl of pNPP (1 mg/ml n diethanolamine-HCL buffer pH 9.6) for 10 mins at room temperature. This was followed by stop solution (3.0 M NaOH, 50 μl/well). The OD was measured at 405 nm.
The target of assay [9] is T8, unprocessed c-Met (p170) (human, UniProt P08581 25-1390).
T8 construct: whole, on cells; Single-chain precursor, not cleaved at the furin site; also called unprocessed form of c-Met; c-Met precursor
T8 sequence (P08581 25-1390): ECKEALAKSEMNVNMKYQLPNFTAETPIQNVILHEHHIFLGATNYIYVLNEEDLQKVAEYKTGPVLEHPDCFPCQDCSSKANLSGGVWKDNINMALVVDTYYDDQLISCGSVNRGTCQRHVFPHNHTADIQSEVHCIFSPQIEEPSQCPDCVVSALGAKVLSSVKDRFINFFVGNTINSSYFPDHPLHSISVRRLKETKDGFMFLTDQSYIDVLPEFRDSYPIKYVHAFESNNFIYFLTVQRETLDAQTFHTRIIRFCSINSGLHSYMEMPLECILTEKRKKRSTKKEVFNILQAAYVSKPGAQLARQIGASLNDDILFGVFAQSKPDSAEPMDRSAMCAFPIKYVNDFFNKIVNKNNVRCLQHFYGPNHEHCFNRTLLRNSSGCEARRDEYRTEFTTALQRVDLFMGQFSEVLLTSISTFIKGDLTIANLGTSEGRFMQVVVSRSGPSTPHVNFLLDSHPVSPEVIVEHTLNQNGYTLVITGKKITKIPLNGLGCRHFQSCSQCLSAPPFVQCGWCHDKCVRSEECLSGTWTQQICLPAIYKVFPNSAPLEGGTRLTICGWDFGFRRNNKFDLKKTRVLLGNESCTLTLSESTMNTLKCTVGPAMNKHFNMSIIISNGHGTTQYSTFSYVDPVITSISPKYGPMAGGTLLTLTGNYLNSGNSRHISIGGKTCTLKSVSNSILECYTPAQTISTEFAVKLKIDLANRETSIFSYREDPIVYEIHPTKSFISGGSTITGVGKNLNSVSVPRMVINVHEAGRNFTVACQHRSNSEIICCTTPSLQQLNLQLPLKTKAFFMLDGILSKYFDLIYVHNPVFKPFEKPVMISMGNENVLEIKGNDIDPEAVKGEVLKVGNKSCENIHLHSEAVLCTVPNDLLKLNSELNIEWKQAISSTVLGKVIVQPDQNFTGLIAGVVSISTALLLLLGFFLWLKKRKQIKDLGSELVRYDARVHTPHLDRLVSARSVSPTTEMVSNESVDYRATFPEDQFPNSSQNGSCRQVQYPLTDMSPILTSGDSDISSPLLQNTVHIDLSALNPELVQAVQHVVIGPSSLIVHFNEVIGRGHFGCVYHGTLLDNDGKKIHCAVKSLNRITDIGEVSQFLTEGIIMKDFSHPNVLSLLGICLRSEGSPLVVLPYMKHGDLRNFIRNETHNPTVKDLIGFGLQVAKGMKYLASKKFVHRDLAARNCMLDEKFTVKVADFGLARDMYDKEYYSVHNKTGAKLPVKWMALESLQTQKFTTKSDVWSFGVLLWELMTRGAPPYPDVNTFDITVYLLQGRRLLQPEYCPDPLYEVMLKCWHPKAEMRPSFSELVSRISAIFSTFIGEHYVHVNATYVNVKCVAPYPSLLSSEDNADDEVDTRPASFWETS
The assay can be described thus: immunoprecipitation from A549 cells, western blot with 25H2 under reducing conditions.

Assay [10] has as its target T9, c-Met receptor as expressed by human tumor cells (total c-Met) (human, UniProt P08581 25-1390).
T9 construct: whole, on cells; also called surface c-Met; HGFR
The assay can be described thus: flow cytometry on A549 cells, PE-conjugated anti-mouse secondary antibody.
Description: The control antibody was a mouse IgG1 isotype matched antibody. An increase in PE signal intensity indicated antibody binding to c-Met.

T9 sequence (P08581 25-1390): as above

B1: antibody LMH 82 (antibody, V domains shown)
VH: EVQLQQSGPELVKPGASVKMSCKASGYTFTDYYMKWVKQSHGKNLEWIGDINPNNGGTNYNQKFKGKATLTVDKSSSTAYMQLNSLTSEDSAVYYCARSGYWGQGTTLTVSS
VL: DVLMTQTPLSLPVSLGDQASISCRSSQSILHSNGNTYLEWYLQKPGQSPKLLIYKVSNRFSGVPDRFSGSGSGTDFTLKISRVEAEDLGVYYCFQGSHVPWTFGGGTKLEIK
notes: Mouse monoclonal antibody from a hybridoma; also called hybridoma PTA-11406
As to B1, the binding result in [1], in assay [2] and in [3] was “binds” each time.

B2: antibody LMH 87 (antibody, V domains shown)
VH: QVQLQQSGPELVKSGASVKMSCKASGNTLKDDHVHWVKQRPGQGLEWIGWIYPGGGRTRYNEKFKGKTTLTADKPSSTVNMLLSSLTSEDSAIYFCTNLVFDVWGAGTTVTVSS
VL: DIVMTQAAPSVPVTPGESVSISCRSSKSLLHSNGNTYLYWFLQRPGQSPQVLIYRMSNLASGVPDRFSGSGSGTAFTLRIRRVEAEDVGVYYCMQNLEYPFTFGGGTKLEIK
notes: Mouse monoclonal antibody from a hybridoma
On to B2, for which the Kd in assay [4] was 2.6 nM. For the same molecule, the binding result in assay [5], in assay [6] and in assay [7] was “binds” throughout.

B3: antibody LMH 85 (antibody, V domains shown)
VH: QVQLQQSGAELAKPGASVKMSCKASGYTFIIYWIHWIKQRPGQGLEWIGYINPSNDYTEYNQKFKDKATLTADKSSNTAFMQLSSLTSEDSAVYYCARDSYDYDDGAYAMDYWGQGTSVTVSS
VL: QIVLSQSPAILSASPGEKVTMTCRASSGVNYMHWYQQKPGSSPKPWIYATSNLASGVPARFSGSGSGTSYSLTISRVEAEDAATYYCQQWISHPFTFGSGTKLEIK
notes: as for B2
With B3, the binding result in [8], in assay [9] and in [10] was “binds” each time.
